Laboratory results published in patent publication US20220298237A1 (KEIO UNIVERSITY, published 2022).

Assays:
[1] = target: T1, mouse aquaporin 3 (AQP3) on cells (mouse, UniProt Q8R2N1 1-292); assay: fluorescence binding assay on mouse macrophage cells, 0.1, 1 and 10 µg/mL (FIG. 4)
T1 construct: whole, on cells; Water channel membrane protein; also called mouse AQP3; AQP3 on PAM212 cells
T1 sequence (looked up): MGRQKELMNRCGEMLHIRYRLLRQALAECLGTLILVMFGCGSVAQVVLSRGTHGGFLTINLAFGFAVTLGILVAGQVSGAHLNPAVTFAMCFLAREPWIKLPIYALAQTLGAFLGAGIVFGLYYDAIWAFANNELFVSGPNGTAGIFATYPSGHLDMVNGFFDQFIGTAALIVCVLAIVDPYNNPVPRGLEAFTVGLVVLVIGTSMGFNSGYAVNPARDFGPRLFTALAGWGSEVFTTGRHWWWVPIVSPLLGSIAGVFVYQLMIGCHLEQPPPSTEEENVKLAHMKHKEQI
Method: PAM212 and macrophage cells were reacted with each anti AQP3 antibody (0.1, 1, or 10 μg/mL) at 4° C. for 1 hour. After washing the cells, a fluorescent-labeled secondary antibody was added and the reaction was allowed to occur additionally for 1 hour (4° C.). By measuring the fluorescence intensity, the binding property of each anti AQP3 antibody to cells was obtained.
The testing was also carried out using solvent (Veh) or a non-specific IgG (IgG) controls. In FIG. 4, the vertical axis represents fluorescence intensity, and the mean fluorescence intensity of each sample is represented by bar height together with standard error.

[2] = target: T2, oligopeptide ATYPSGHLDM (SEQ ID NO: 1) (human and mouse); assay: ELISA on peptide SEQ ID NO:1, IgG, 50% binding response (FIG. 16A)
T2 construct: Synthetic peptide; positions 148 to 157 of the human AQP3 polypeptide, identical in mouse; also called peptide used for immunization; oligopeptide 5
T2 peptide: ATYPSGHLDM

[3] = target: T3, mouse AQP3 in lysate of HEK293T cells overexpressing mouse AQP3 and a myc-biotinylated tag (mouse, UniProt Q8R2N1 1-292); assay: ELISA on lysate of HEK293T cells overexpressing mouse AQP3 (FIG. 3)
T3 construct: Cell lysate used in ELISA; also called AQP3 containing cell lysate; not shown: myc-biotinylated tag
T3 sequence (looked up): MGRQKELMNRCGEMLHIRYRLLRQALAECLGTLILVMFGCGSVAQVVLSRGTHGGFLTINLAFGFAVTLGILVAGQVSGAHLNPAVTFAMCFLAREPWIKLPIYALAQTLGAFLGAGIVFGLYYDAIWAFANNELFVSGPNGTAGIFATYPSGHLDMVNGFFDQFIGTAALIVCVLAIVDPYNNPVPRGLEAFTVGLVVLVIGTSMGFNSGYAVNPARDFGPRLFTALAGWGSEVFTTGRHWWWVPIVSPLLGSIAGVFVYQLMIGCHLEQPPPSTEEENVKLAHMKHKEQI
Source text: Cell lysate from HEK293T cells overexpressing mouse AQP3 and a myc-biotinylated tag was used in an ELISA assay to measure the binding of antibodies A, B, C, D, E, F, G, H, J, and K to AQP3. Cell lysate from HEK293T cells overexpressing the myc-biotinylated tag but not AQP3 was used as control. […] C. Antibody binding to AQP3 expressing cells

[4] = target: T4, oligopeptide GIFATYPSGHLDM (SEQ ID NO: 107); assay: ELISA on coated peptide
T4 construct: Synthetic peptide, part of Loop C of AQP3
T4 peptide: GIFATYPSGHLDM
Method: (§1) To determine the important amino acid residues of an epitope in Loop C involved in binding to specific AQP3 antibody clones, peptides of varying lengths were produced. The sequences of these peptides are shown in column 2 of Table 4.
(§2) The various peptides and AQP3 antibody clones were subjected to ELISA binding analyses. […] The microtiter wells (Costar 2690) were coated with 50 μL of each peptide at 4° C. overnight. The wells were washed 3 times with PBS and blocked with 100 μL of 1% BSA/PBS at 37° C. for 1 hour. Each antibody was adjusted to 1 μg/mL in 1% SBA/PBS as above then serially diluted 1:5 in 1% BSA/PBS. The blocker was discarded and the wells were incubated with 50 μL of antibodies at 37° C. for 1.5 hours. The wells were washed 3 times with PBS and mouse antibodies were detected with 50 μL of goat anti-mouse IgG (H+L) HRP conjugate (ThermoFisher 31438) (1:5,000 in 1% BSA/PBS) and rabbit antibodies were detected with 50 μL of goat anti-rabbit IgG (H+L) HRP conjugate (ThermoFisher 31462) (1:5,000 in 1% BSA/PBS) at 37° C. for 1 hour. The wells were washed 3 times with PBS and developed with 50 μL of HRP substrate at RT for 5 min then stopped with 50 μL of 2N sulfuric acid and binding was measured with a plate reader.

[5] = target: T5, oligopeptide ATYPSGHLD (SEQ ID NO: 101); assay: ELISA on coated peptide
T5 construct: Synthetic peptide, part of Loop C of AQP3
T5 peptide: ATYPSGHLD
Method: as §1, §2

[6] = target: T6, oligopeptide TAGIFATYPSGHLDM (SEQ ID NO: 105); assay: ELISA on coated peptide
T6 construct: Synthetic peptide, part of Loop C of AQP3
T6 peptide: TAGIFATYPSGHLDM
Method: as §1, §2

[7] = target: T7, oligopeptide PSGHLDM (SEQ ID NO: 98); assay: ELISA on coated peptide
T7 construct: Synthetic peptide, part of Loop C of AQP3
T7 peptide: PSGHLDM
Method: as §1, §2

[8] = target: T8, oligopeptide FATYPSGHLDM (SEQ ID NO: 109); assay: ELISA on coated peptide
T8 construct: Synthetic peptide, part of Loop C of AQP3
T8 peptide: FATYPSGHLDM
Method: as §1, §2

[9] = target: T9, oligopeptide ATYPSGHL (SEQ ID NO: 102); assay: ELISA on coated peptide
T9 construct: Synthetic peptide, part of Loop C of AQP3
T9 peptide: ATYPSGHL
Method: as §1, §2

[10] = target: T10, oligopeptide ATYPSGH (SEQ ID NO: 103); assay: ELISA on coated peptide
T10 construct: Synthetic peptide, part of Loop C of AQP3
T10 peptide: ATYPSGH
Method: as §1, §2

[11] = target: T11, oligopeptide YPSGHLDM (SEQ ID NO: 97); assay: ELISA on coated peptide
T11 construct: Synthetic peptide, part of Loop C of AQP3; first diluted in DMSO
T11 peptide: YPSGHLDM
Method: as §1, §2

[12] = target: T12, oligopeptide TYPSGHLDM (SEQ ID NO: 96); assay: ELISA on coated peptide
T12 construct: Synthetic peptide, part of Loop C of AQP3
T12 peptide: TYPSGHLDM
Method: as §1, §2

[13] = target: T13, oligopeptide AGIFATYPSGHLDM (SEQ ID NO: 106); assay: ELISA on coated peptide
T13 construct: Synthetic peptide, part of Loop C of AQP3
T13 peptide: AGIFATYPSGHLDM
Method: as §1, §2

[14] = target: T14, oligopeptide SGPNGTAGIFATYPS (SEQ ID NO: 94); assay: ELISA on coated peptide
T14 construct: Synthetic peptide, part of Loop C of AQP3
T14 peptide: SGPNGTAGIFATYPS
Method: as §1, §2

[15] = target: T15, oligopeptide SGHLDM (SEQ ID NO: 99); assay: ELISA on coated peptide
T15 construct: Synthetic peptide, part of Loop C of AQP3
T15 peptide: SGHLDM
Method: as §1, §2

[16] = target: T16, oligopeptide ATYPSG (SEQ ID NO: 104); assay: ELISA on coated peptide
T16 construct: Synthetic peptide, part of Loop C of AQP3
T16 peptide: ATYPSG
Method: as §1, §2

[17] = target: T17, oligopeptide IFATYPSGHLDM (SEQ ID NO: 108); assay: ELISA on coated peptide
T17 construct: Synthetic peptide, part of Loop C of AQP3
T17 peptide: IFATYPSGHLDM
Method: as §1, §2

[18] = target: T2, oligopeptide ATYPSGHLDM (SEQ ID NO: 1); assay: ELISA on coated peptide
Method: as §1, §2

[19] = target: T18, oligopeptide GHLDM (SEQ ID NO: 100); assay: ELISA on coated peptide
T18 construct: Synthetic peptide, part of Loop C of AQP3
T18 peptide: GHLDM
Method: as §1, §2

[20] = target: T19, human aquaporin 3 (AQP3) on cells (human, UniProt Q92482 1-292); assay: fluorescence binding assay on HaCaT cells, 10 µg/mL (FIG. 5C)
T19 construct: whole, on cells; Water channel membrane protein; also called human AQP3; AQP3 on HaCaT cells
T19 sequence (looked up): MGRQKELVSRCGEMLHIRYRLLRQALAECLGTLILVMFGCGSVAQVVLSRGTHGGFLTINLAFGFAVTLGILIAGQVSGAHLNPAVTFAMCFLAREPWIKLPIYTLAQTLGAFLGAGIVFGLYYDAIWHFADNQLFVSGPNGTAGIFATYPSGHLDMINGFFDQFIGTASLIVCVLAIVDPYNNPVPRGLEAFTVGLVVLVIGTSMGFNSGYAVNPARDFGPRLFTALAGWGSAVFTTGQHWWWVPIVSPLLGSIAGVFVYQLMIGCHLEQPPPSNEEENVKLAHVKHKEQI

B1: Antibody J (antibody, mouse IgG2a, kappa, V domains shown)
VH: QVHLQQSGTELVKPGASVKLSCEASGYTFTSYWMHWVKQRPGQGLEWIGNINPSNGGTNYNEKFKSKATLTVDKSSSTAYMQLSSLTSEDSAVYYCARGGIYYGNYDYYAMDYWGQGTSVTVSS
VL: DIVMTQAAPSVPVTPGESVSISCRSSKSLLHSNGNTYLYWFLQRPGQSPQLLIYRVSNLASGVPDRFSGSGSGTAFTLRISRVEAEDVGVYYCMQHLEYPFTFGGGTKLEIKR
notes: also called anti AQP3 antibody J
binding result [1]: binds
EC50 [2]: > 1 µg/mL
binding result [3]: binds
binding signal (plate reader) [4]: 0.523
binding signal (plate reader) [5]: 0.671
binding signal (plate reader) [6]: 0.723
binding signal (plate reader) [7]: 0.095
binding signal (plate reader) [8]: 0.513
binding signal (plate reader) [9]: 0.044
binding signal (plate reader) [10]: 0.045
binding signal (plate reader) [11]: 0.086
binding signal (plate reader) [12]: 0.26
binding signal (plate reader) [13]: 0.744
binding signal (plate reader) [14]: 0.043
binding signal (plate reader) [15]: 0.041
binding signal (plate reader) [16]: 0.044
binding signal (plate reader) [17]: 0.594
binding signal (plate reader) [18]: 0.391
binding signal (plate reader) [19]: 0.043
binding result [20]: binds
